Assay [1] deals with T1, mouse Siglec15-his protein (mouse).
T1 construct: In house made
T1 chain: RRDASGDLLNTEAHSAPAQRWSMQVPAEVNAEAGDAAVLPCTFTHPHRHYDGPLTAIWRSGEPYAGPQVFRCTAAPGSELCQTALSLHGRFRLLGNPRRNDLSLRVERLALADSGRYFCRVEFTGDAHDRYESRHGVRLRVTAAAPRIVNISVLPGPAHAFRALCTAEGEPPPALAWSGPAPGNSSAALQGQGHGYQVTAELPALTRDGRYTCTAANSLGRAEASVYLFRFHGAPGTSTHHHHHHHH
Nature of the assay: indirect ELISA on coated mouse Siglec15-his. The procedure: The anti-Siglec15 antibodies' cross-reactions to cynomolgus or mouse Siglec15 proteins were measured. Briefly, 96-well micro plates were coated with 100 μl of 2 μg/ml cynomolgus Siglec15-his protein (in house made with SEQ ID NO: 21), or 2 μg/ml mouse Siglec15-his protein (in house made with SEQ ID NO: 22) in carbonate/bicarbonate buffer (pH 9.6) for 2 hours at 37° C. ELISA plates were washed once with wash buffer (PBS+0.05% v/v Tween-20, PBST) and then blocked with 200 μl/well blocking buffer (5% w/v non-fatty milk in PBST) overnight at 4° C. Plates were washed 4 times and incubated with 100 μl serially diluted anti-Siglec15 antibodies of the disclosure or controls (starting at 66.7 nM, 5-fold serial dilution in PBST with 2.5% w/v non-fatty milk) for 40 minutes at 37° C. ELISA plates were washed 4 times again and incubated with Peroxidase AffiniPure Goat Anti-Human IgG, F(ab)₂ fragment specific (1:5000 dilution in PBST buffer, Jackson Immunoresearch, Cat #109-035-097, 100 μl/well) for 40 minutes at 37° C. After a final wash, plates were incubated with 100 μl/well TMB (Innoreagents, Cat #TMB-S-002). The reaction was stopped 4 minutes later at room temperature with 50 μl 1M H₂SO₄, and the absorbance of each well was read on a microplate reader using dual wavelength mode with 450 nm for TMB and 630 nm as the reference wavelength, then the OD (450-630) values were plotted against antibody concentration. Data was analyzed using Graphpad Prism software and EC₅₀ values were reported.

Assay [2] concerns the target T2, cynomolgus monkey Siglec15-his protein (cynomolgus monkey).
T2 construct: In house made; also called Cynomolgus Siglec15-his; cynomolgus Siglec15
T2 chain: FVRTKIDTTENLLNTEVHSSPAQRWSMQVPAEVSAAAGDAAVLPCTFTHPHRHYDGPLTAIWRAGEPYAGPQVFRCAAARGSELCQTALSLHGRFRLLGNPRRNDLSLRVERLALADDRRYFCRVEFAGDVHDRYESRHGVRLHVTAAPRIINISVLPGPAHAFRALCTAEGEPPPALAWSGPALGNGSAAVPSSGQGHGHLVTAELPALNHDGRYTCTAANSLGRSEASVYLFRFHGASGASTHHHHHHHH
Nature of the assay: SPR Biacore T200, antibody captured by anti-human IgG, antigen as analyte, 1:1 fit. The procedure:
(§1) Briefly, goat anti-human IgG (GE healthcare, Cat #BR100839, Human Antibody Capture Kit) was covalently linked to a CM5 chip (carboxy methyl dextran coated chip, GE healthcare, Cat #BR-1005-30) via primary amines, using a standard amine coupling kit provided by Biacore (GE healthcare, Pittsburgh, Pa., USA). Un-reacted moieties on the biosensor surface were blocked with ethanolamine. Then, purified anti-Siglec15 antibodies of the disclosure at the concentration of 13.3 nM and an anti-Siglec15 benchmark (ch5G12, also referred to as BM, see U.S. Patent Publication No. 20190202912A1, amino acid sequences of the heavy chain and light chain set forth in SEQ ID NOs: 24 and 25, respectively) at 13.3 nM, were respectively flowed onto the chip at a flow rate of 10 μL/min. Then, serially diluted recombinant human Siglec15-his protein (in house made, amino acid sequence set forth in SEQ ID NO: 20) or cynomolgus monkey Siglec15-his protein (in house made, amino acid sequence set forth in SEQ ID NO: 21), 2-fold serial dilution in HBS-EP⁺ buffer starting at 80 nM, were respectively flown onto the chip at a flow rate of 30 μL/min. The antigen-antibody association kinetics was followed for 2 minutes and the dissociation kinetics was followed for 10 minutes. The association and dissociation curves were fit to a 1:1 Langmuir binding model using BIAcore evaluation software.
(In general: Surface plasmon resonance follows binding to a sensor surface in real time, without labels.)

In assay [3] the target is T3, recombinant human Siglec15-his protein (human, UniProt Q6ZMC9 20-263).
T3 construct: In house made; Biotin-labeled in the capture ELISA
T3 sequence: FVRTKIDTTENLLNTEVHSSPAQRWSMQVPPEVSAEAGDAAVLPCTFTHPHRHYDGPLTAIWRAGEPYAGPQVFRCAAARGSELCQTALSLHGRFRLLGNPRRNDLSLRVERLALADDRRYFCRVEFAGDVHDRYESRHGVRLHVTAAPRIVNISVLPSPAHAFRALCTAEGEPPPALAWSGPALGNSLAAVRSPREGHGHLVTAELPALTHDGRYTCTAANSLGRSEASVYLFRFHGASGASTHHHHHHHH
Described as above. The procedure:
as §1

Assay [4] deals with T2, cynomolgus monkey Siglec15-his protein. The description is as above. The procedure: as §1
The target of assay [5] is T3, recombinant human Siglec15-his protein. Described as above. The procedure: as §1
The source holds these as a separate data set.

Like-named read-outs stand apart in the source and are kept apart here.

As usually defined, the EC50 is the concentration needed to bring the measured effect to its halfway point. One may read the Kd as the equilibrium constant for the complex coming apart. As usually defined, the koff is a measure of how fast the partners let go of each other. The kon is the rate constant with which the complex forms.

B1: A2A5C7E8 (antibody, V domains shown)
VH: EVQLVQSGAEVKKPGESLRISCKGSGYSFTTYWISWVRQMPGKGLEWMGLIDPSDSYTNYSPSFQGHVTISTDKSISTAYLQWSSLKASDTAMYYCARGGYYGSEEDYWGQGTLVTVSS
VL: EIVLTQSPGTLSLSPGERATLSCRASQSVSSSRLAWFQQKSGQAPRLLIFDASSRATGIPDRFSGSGSGTDFTLTISRLEPEDFAVYYCQQYGSSPRTFGQGTKVEFK
notes: Fully human antibody from transgenic mouse hybridoma; also called A2A5C7E8-1
In assay [1], B1 showed an EC50 of 0.26 nM. Also, the Kd in assay [2] was 0.0704 nM; in assay [3], 0.0383 nM; in assay [4] it was 0.0681 nM; in assay [5] it was 0.041 nM. Moreover, the koff in assay [2] was determined as 7.96e-05 s⁻¹; in assay [3] it was 7.45e-05 s⁻¹; in assay [4] it was 8.49e-05 s⁻¹; in assay [5] it was 9.98e-05 s⁻¹. The kon in assay [2] was 1.13e+06 M⁻¹ s⁻¹; in assay [3] it was 1.94e+06 M⁻¹ s⁻¹; in assay [4] it was 1.25e+06 M⁻¹ s⁻¹; in assay [5], 2.43e+06 M⁻¹ s⁻¹.

B2: A2A5C7E8-2 (antibody, human IgG1, kappa, V domains shown)
VH: EVQLVQSGAEVKKPGESLRISCKGSGYSFTTYWISWVRQMPGKGLEWMGLIDPSESYTNYSPSFQGHVTISTDKSISTAYLQWSSLKASDTAMYYCARGGYYGSEEDYWGQGTLVTVSS
VL: EIVLTQSPGTLSLSPGERATLSCRASQSVSSSRLAWFQQKSGQAPRLLIFDASSRATGIPDRFSGSGSGTDFTLTISRLEPEDFAVYYCQQYGSSPRTFGQGTKVEFKR
notes: Variant of A2A5C7E8 modified in VH CDR2 (X1 = E)
On to B2, for which, in assay [2], the Kd amounted to 0.147 nM, the koff came out at 0.000167 s⁻¹ and the kon was 1.14e+06 M⁻¹ s⁻¹. In assay [3], the Kd turned out to be 0.164 nM, the koff was 0.000273 s⁻¹ and the on-rate (kon) stood at 1.66e+06 M⁻¹ s⁻¹.

B3: A2A5C7E8-3 (antibody, human IgG1, kappa, V domains shown)
VH: EVQLVQSGAEVKKPGESLRISCKGSGYSFTTYWISWVRQMPGKGLEWMGLIDPSDSYTNYSPSFKGHVTISTDKSISTAYLQWSSLKASDTAMYYCARGGYYGSEEDYWGQGTLVTVSS
VL: EIVLTQSPGTLSLSPGERATLSCRASQSVSSSRLAWFQQKSGQAPRLLIFDASSRATGIPDRFSGSGSGTDFTLTISRLEPEDFAVYYCQQYGSSPRTFGQGTKVEFKR
notes: Variant of A2A5C7E8 modified in VH CDR2 (X2 = K)
On to B3, for which, in assay [2], binding was characterised by a dissociation constant (Kd) of 0.0751 nM, the koff was found to be 5.32e-05 s⁻¹ and the kon was found to be 708000 M⁻¹ s⁻¹. Also, in assay [3], the equilibrium dissociation constant (Kd) came out at 0.0396 nM, the koff is 7.46e-05 s⁻¹ and the kon worked out at 1.88e+06 M⁻¹ s⁻¹.

B4: anti-Siglec15 benchmark (ch5G12) (antibody, human IgG1, kappa, V domains shown)
VH: QVQLQQPGAELVKPGASVKMSCKASGYTFTSYWITWVIQRPGQGLEWIGDIYCGSDTMHYNEKFKNKATLTVDTSSSTAYMQLSSLTSEDSAVYYCARWWDYGSSYDYFDYWGQGTTLTVSS
VL: DIKMTQSPSSMYASLGERVTITCKASQDINSYLSWFQQKPGKSPKTLIYRANRLVDGVPSRFSGSGSGQDYSLTISSLEYEDMGIYYCLQYDEFPYTFGGGTKLEIKR
notes: ch5G12 (US 20190202912A1); also called BM; Siglec15-ch5G9
Regarding B4, the response in assay [1] was half-maximal at 0.361 nM (EC50). The Kd came out at 0.688 nM in assay [2], 0.422 nM in assay [3], 0.448 nM in assay [4] and 0.265 nM in assay [5]. Besides, the off-rate (koff) in assay [2] turned out to be 0.000781 s⁻¹; in assay [3], 0.000955 s⁻¹; in assay [4], 0.000788 s⁻¹; in assay [5] it was 0.00172 s⁻¹. For the same molecule, the kon in assay [2] was 1.13e+06 M⁻¹ s⁻¹; in assay [3], 2.27e+06 M⁻¹ s⁻¹; in assay [4], 1.76e+06 M⁻¹ s⁻¹; in assay [5] it was 6.51e+06 M⁻¹ s⁻¹.

B5: A1E10G7H9 (antibody, V domains shown)
VH: QVQLQESGPGLVKPSGTLSLTCAVSGGSISSSNWWHWVRQPPGKGLEWIGEIYHSGNTNYKPSLKSRVTISVDKSKNQFSLKLSSVTAADTAVYYCARDEGNGWSNAFDIWGQGTMVTVSS
VL: ENVLTQSPGTLSLSPGERVTLSCRASQSVSSSYLAWYQQKPGQAPRFLIYGASGGATGIPDRFSGSGSGTDFTLTISRLEPEDFAVYYCQQYGSSPITFGQGTRLEIK
notes: Fully human antibody from transgenic mouse hybridoma
B5 registered a 50% effective concentration (EC50) in assay [1] of 0.329 nM. In assay [4], this molecule returned a dissociation constant Kd of 0.0269 nM, a koff of 0.000104 s⁻¹ and a kon of 3.89e+06 M⁻¹ s⁻¹. Further, in assay [5], the Kd stood at 0.0139 nM, the koff came to 0.0001 s⁻¹ and the kon worked out at 7.18e+06 M⁻¹ s⁻¹.

(Values after patent US20230106715A1 (BIOSION, published 2023).)
